Paper PMC12731782

Target: N-terminally GFP-tagged mouse ClC-3c (mouse)
Assay: FRET or BRET; FLIM-FRET (phasor analysis of the donor lifetime) in living SH-SY5Y cells transfected with the IRES construct; GFP on ClC-3 as donor, mCherry on ClC-4 as acceptor; regions of interest at the plasma membrane or intracellular areas of intermediate fluorescence; tauD from cells expressing only the donor

Chain of N-terminally GFP-tagged mouse ClC-3c (mouse) (P51791 whole entry): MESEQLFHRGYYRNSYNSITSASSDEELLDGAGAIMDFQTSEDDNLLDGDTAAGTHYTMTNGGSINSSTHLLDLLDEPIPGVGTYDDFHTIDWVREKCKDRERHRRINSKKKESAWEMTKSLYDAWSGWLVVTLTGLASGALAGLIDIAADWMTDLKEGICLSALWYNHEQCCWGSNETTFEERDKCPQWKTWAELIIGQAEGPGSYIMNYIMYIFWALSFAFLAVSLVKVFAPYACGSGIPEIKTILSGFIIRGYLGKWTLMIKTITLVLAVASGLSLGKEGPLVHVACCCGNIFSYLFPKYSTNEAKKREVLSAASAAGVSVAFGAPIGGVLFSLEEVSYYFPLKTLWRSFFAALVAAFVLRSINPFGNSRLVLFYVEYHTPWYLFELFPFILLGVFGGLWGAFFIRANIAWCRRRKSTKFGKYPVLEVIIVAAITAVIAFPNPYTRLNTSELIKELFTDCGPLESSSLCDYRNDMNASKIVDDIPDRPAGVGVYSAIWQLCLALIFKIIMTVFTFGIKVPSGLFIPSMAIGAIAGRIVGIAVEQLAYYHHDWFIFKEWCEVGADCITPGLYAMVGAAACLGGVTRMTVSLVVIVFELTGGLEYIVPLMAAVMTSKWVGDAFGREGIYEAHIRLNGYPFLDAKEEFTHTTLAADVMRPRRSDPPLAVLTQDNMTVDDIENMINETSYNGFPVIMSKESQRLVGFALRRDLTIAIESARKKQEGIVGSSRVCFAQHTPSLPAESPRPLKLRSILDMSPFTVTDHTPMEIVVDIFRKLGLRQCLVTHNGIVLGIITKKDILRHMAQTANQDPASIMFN

- donor fluorescence lifetime in the presence of the acceptor (τDA; unquenched donor τD = 2.22ns): 1.89 ns
Substance: N-terminally mCherry-tagged human ClC-4 (from UniProt P51793 1-760) (natural protein)
